The results in this text go back to patent US20050239141A1.

The target in assay [1] is T1, rat CD5 antigen present on rat T cells (rat) (UniProt P51882).
T1 sequence (looked up): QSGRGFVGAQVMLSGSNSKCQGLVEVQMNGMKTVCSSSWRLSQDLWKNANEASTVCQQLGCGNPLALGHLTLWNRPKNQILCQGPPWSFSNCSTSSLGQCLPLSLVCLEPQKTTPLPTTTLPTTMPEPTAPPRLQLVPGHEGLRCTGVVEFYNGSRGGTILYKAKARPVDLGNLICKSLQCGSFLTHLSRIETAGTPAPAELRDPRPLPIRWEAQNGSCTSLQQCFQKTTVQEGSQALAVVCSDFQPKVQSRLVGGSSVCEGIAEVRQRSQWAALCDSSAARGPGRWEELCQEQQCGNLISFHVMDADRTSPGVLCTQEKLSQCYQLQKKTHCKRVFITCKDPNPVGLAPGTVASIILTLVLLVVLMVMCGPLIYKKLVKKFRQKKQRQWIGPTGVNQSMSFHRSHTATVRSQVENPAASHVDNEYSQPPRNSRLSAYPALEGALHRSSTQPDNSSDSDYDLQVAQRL
Put plainly: flow cytometry, blood T cells of a rat 3 h after 0.5 mg/kg i.v. A general note: A flow cytometer gives signals particle by particle.

For assay [2], the target named is T1, rat CD5 antigen present on rat T cells (rat). Put plainly: flow cytometry, lymph node T cells of a rat 3 h after 0.5 mg/kg i.v.
Assay [3] has the same target. The experiment in a line: flow cytometry, spleen T cells of a rat 3 h after 0.5 mg/kg i.v.
The target is the same in assay [4]. The experiment in a line: flow cytometry, spleen T cells of a rat 3 h after 0.5 mg/kg i.v. (isotype matched negative control).
Assay [5] has the same target. Put plainly: flow cytometry, blood T cells of a rat 3 h after 0.5 mg/kg i.v. (isotype matched negative control).
The target is the same in assay [6]. The experiment in a line: flow cytometry, lymph node T cells of a rat 3 h after 0.5 mg/kg i.v. (isotype matched negative control).

For OX19 MoAb (antibody), the values for the % of CD4 cells also positive for mouse IgG1 in assay [1], in assay [2] and in assay [3] were 96.2%, 96.2% and 84.8%, respectively. Also, the % of CD8 cells also positive for mouse IgG1 in assay [1] was determined as 70.2%; in assay [2], 96.8%; in assay [3], 73.6%.

B1: MoAb H65 (antibody, V domains shown)
VH: QIQLVQSGPELKKPGETVKISCKASGYTFTNYGMNWVKQAPGKGLRWMGWINTHTGEPTYADDFKGRFAFSLETSASTAYLQINNLKNEDTATYFCTRRGYDWYFDVWGAGTTVTVSS
VL: DIKMTQSPSSMYASLGERVTITCKASQDINSYLSWFQQKPGKSPKTLIYRANRLVDGVPSRFSGSGSGQDYSLTISSLDYEDMGIYYCQQYDESPWTFGGGTKLEIK
Turning to B1, the % of CD4 cells also positive for mouse IgG1 was 14.8% in assay [4], 6.7% in assay [5] and 4.2% in assay [6]. Further, the % of CD8 cells also positive for mouse IgG1 came out at 20.6% in assay [4], 5.7% in assay [5] and 6.5% in assay [6].
